# Assay results published in US20110263454A1, “Methods of Identifying Functional Characteristics of Promoters, Transcription Modifying Proteins and Transcription Modulating Agents” (Salk Institute for Biological Studies, priority 2008, published 2011).
# B1: RVRb: Rev-Erb β (NR1D2, alternative name RVR), cDNA driver (protein, UniProt Q14995 1-579, looked up)
# Nuclear receptor subfamily 1 …: MEVNAGGVIAYISSSSSASSPASCHSEGSENSFQSSSSSVPSSPNSSNSDTNGNPKNGDLANIEGILKNDRIDCSMKTSKSSAPGMTKSHSGVTKFSGMVLLCKVCGDVASGFHYGVHACEGCKGFFRRSIQQNIQYKKCLKNENCSIMRMNRNRCQQCRFKKCLSVGMSRDAVRFGRIPKREKQRMLIEMQSAMKTMMNSQFSGHLQNDTLVEHHEQTALPAQEQLRPKPQLEQENIKSSSPPSSDFAKEEVIGMVTRAHKDTFMYNQEQQENSAESMQPQRGERIPKNMEQYNLNHDHCGNGLSSHFPCSESQQHLNGQFKGRNIMHYPNGHAICIANGHCMNFSNAYTQRVCDRVPIDGFSQNENKNSYLCNTGGRMHLVCPMSKSPYVDPHKSGHEIWEEFSMSFTPAVKEVVEFAKRIPGFRDLSQHDQVNLLKAGTFEVLMVRFASLFDAKERTVTFLSGKKYSVDDLHSMGAGDLLNSMFEFSEKLNALQLSDEEMSLFTAVVLVSADRSGIENVNSVEALQETLIRALRTLIMKNHPNEASIFTKLLLKLPDLRSLNNMHSEELLAFKVHP
# B2: RARa: Retinoic acid receptor α (NR1B1), nuclear hormone receptor cDNA driver (protein, UniProt P10276 1-462, looked up)
# Retinoic acid receptor alpha: MASNSSSCPTPGGGHLNGYPVPPYAFFFPPMLGGLSPPGALTTLQHQLPVSGYSTPSPATIETQSSSSEEIVPSPPSPPPLPRIYKPCFVCQDKSSGYHYGVSACEGCKGFFRRSIQKNMVYTCHRDKNCIINKVTRNRCQYCRLQKCFEVGMSKESVRNDRNKKKKEVPKPECSESYTLTPEVGELIEKVRKAHQETFPALCQLGKYTTNNSSEQRVSLDIDLWDKFSELSTKCIIKTVEFAKQLPGFTTLTIADQITLLKAACLDILILRICTRYTPEQDTMTFSDGLTLNRTQMHNAGFGPLTDLVFAFANQLLPLEMDDAETGLLSAICLICGDRQDLEQPDRVDMLQEPLLEALKVYVRKRRPSRPHMFPKMLMKITDLRSISAKGAERVITLKMEIPGSMPPLIQEMLENSEGLDTLSGQPGGGGRDGGGLAPPPGSCSPSLSPSSNRSSPATHSP
# B3: PPARd: Peroxisome proliferator activated receptor δ (NR1C2), cDNA driver (protein, UniProt Q03181 1-441, looked up)
# Peroxisome …: MEQPQEEAPEVREEEEKEEVAEAEGAPELNGGPQHALPSSSYTDLSRSSSPPSLLDQLQMGCDGASCGSLNMECRVCGDKASGFHYGVHACEGCKGFFRRTIRMKLEYEKCERSCKIQKKNRNKCQYCRFQKCLALGMSHNAIRFGRMPEAEKRKLVAGLTANEGSQYNPQVADLKAFSKHIYNAYLKNFNMTKKKARSILTGKASHTAPFVIHDIETLWQAEKGLVWKQLVNGLPPYKEISVHVFYRCQCTTVETVRELTEFAKSIPSFSSLFLNDQVTLLKYGVHEAIFAMLASIVNKDGLLVANGSGFVTREFLRSLRKPFSDIIEPKFEFAVKFNALELDDSDLALFIAAIILCGDRPGLMNVPRVEAIQDTILRALEFHLQANHPDAQYLFPKLLQKMADLRQLVTEHAQMMQRIKKTETETSLHPLLQEIYKDMY
# B4: RARb: Retinoic acid receptor β (NR1B2), nuclear hormone receptor cDNA driver (protein, UniProt P10826 1-455, looked up)
# Retinoic acid receptor beta: MTTSGHACPVPAVNGHMTHYPATPYPLLFPPVIGGLSLPPLHGLHGHPPPSGCSTPSPATIETQSTSSEELVPSPPSPLPPPRVYKPCFVCQDKSSGYHYGVSACEGCKGFFRRSIQKNMIYTCHRDKNCVINKVTRNRCQYCRLQKCFEVGMSKESVRNDRNKKKKETSKQECTESYEMTAELDDLTEKIRKAHQETFPSLCQLGKYTTNSSADHRVRLDLGLWDKFSELATKCIIKIVEFAKRLPGFTGLTIADQITLLKAACLDILILRICTRYTPEQDTMTFSDGLTLNRTQMHNAGFGPLTDLVFTFANQLLPLEMDDTETGLLSAICLICGDRQDLEEPTKVDKLQEPLLEALKIYIRKRRPSKPHMFPKILMKITDLRSISAKGAERVITLKMEIPGSMPPLIQEMLENSEGHEPLTPSSSGNTAEHSPSISPSSVENSGVSQSPLVQ
# B5: RARg: Retinoic acid receptor γ (NR1B3), nuclear hormone receptor cDNA driver (protein, UniProt P13631 1-454, looked up)
# Retinoic acid receptor gamma: MATNKERLFAAGALGPGSGYPGAGFPFAFPGALRGSPPFEMLSPSFRGLGQPDLPKEMASLSVETQSTSSEEMVPSSPSPPPPPRVYKPCFVCNDKSSGYHYGVSSCEGCKGFFRRSIQKNMVYTCHRDKNCIINKVTRNRCQYCRLQKCFEVGMSKEAVRNDRNKKKKEVKEEGSPDSYELSPQLEELITKVSKAHQETFPSLCQLGKYTTNSSADHRVQLDLGLWDKFSELATKCIIKIVEFAKRLPGFTGLSIADQITLLKAACLDILMLRICTRYTPEQDTMTFSDGLTLNRTQMHNAGFGPLTDLVFAFAGQLLPLEMDDTETGLLSAICLICGDRMDLEEPEKVDKLQEPLLEALRLYARRRRPSQPYMFPRMLMKITDLRGISTKGAERAITLKMEIPGPMPPLIREMLENPEMFEDDSSQPGPHPNASSEDEVPGGQGKGGLKSPA
# Test system: mCAR promoter
# Assay: NHR-promoter luciferase screen, mCAR promoter
# Type: cell-based, mouse
# Conditions: mCAR promoter-luciferase, CV-1 cells, NHR +/- ligand, control = 1.00
# Experimental: (§1) The use, feasibility, and reproducibility of the functional NHR-promoter screen in a 48-well format have been tested validated. Briefly, there were co-expressed 50 ng of each NHR/NHR homodimer or NHR/RXR heterodimer with 100 ng promoter/luciferase construct and 50 ng of LacZ (as a control for transfection efficiency) in CV-1 cells using Fugene HD (Roche) as a transfection reagent (alternatively or additionally, a CMV-YFP construct can be used as a transfection control). Each of the nuclear hormone receptors that were used in these experiments was cloned into a pcDNA3.1 vector and comprised a C-terminally linked V5H6 tag. Twenty-four hours after transfection, appropriate ligands were added, where applicable, (see Table 5 for various ligands and concentrations and after 48 hrs, samples were assayed for luciferase and LacZ activity. To measure for luciferase activity 15 ul of sample was added to 30 ul of luciferase buffer (20 mM tricine, 1.07 mM MgCarbonate, 2.67 mM MgSulfate, 0.1 mM Naz-EDTA, 5 mM DTT, 5 mM ATP, 0.15 mg/ml CoA, 0.5 mM Luciferin), mixed briefly, and run in a Perkin Elmer Victor 5 luminometer. Thus, the functional NHR-promoter screen was used to observe the transcriptional activity of 29 promoters from various physiological pathways including inflammation, lipid and sugar metabolism, cholesterol transport, xenobiotic metabolism, and circadian rhythm.
# (§2) The promoters that facilitate transcription of the indicated gene products that were tested using the protocols described herein are listed in the first row of the table. The nuclear hormone receptors and, where applicable, ligands that were assayed for their transcriptional effects on the promoters are listed in the first column of the table. The data represent the luciferase activity of each sample normalized to both the lacZ activity of that sample and to a control, e.g., no NHR or ligand, as customary in the art. As described previously, these normalizations allow the transcriptional activity of each reporter cell to be compared to other samples.
# (§3) Tables 7-40 show the transcriptional effects of the hormone receptors, and, where applicable, ligands (orphan receptors are screened without ligand), on each individual promoter. […] The control data of each table are shown in their last rows.
row,Molecule,"luciferase activity normalized to lacZ activity and to a control, mCAR"
1,B1,0.91
2,B2,1.22
3,B3,0.79
4,B4,1.30
5,B5,1.24

# Same assay, conditions: mCAR promoter; HR/ligand component
Molecule,"Luc. act., normalized to lacZ","Normalized Luc. act., normalized to control"
B1,34.5,0.9
B2,46.3,1.2
B3,30.1,0.8
B4,49.6,1.3
B5,47.1,1.2

# Test system: mUCP3 promoter
# Assay: NHR-promoter luciferase screen, mUCP3 promoter
# Type: cell-based, mouse
# Conditions: mUCP3 promoter reporter; HR without or with its ligand; relative to control
# Experimental: as §1, §2, §3
row,Molecule,"Normalized Luc. act., normalized to control"
1,B1,1.9
2,B2,1.8
3,B3,1.7
4,B4,2.1
5,B5,2.0

# Same assay, conditions: mUCP3 promoter reporter; hormone receptor (HR) without or with its ligand
row,Molecule,"Luc. act., normalized to lacZ"
1,B1,1.3
2,B2,1.2
3,B3,1.1
4,B4,1.4
5,B5,1.3

# Same assay, conditions: transcription factor +/- ligand; control = 1.00
row,Molecule,mUCP3 promoter reporter activity
1,B1,1.91
2,B2,1.76
3,B3,1.69
4,B4,2.08
5,B5,1.98

# Test system: Bmal1 promoter
# Assay: NHR-promoter luciferase screen, Bmal1 promoter
# Type: cell-based, mouse
# Conditions: Bmal1 promoter; HR component without or with ligand
# Experimental: as §1, §2, §3
Molecule,"Luc. act., normalized to lacZ","Normalized Luc. act., normalized to control"
B1,0.8,0.1
B2,18.9,1.2
B3,11.2,0.7
B4,15.6,1.0
B5,19.1,1.2

# Same assay, conditions: FIG. 2c, in words
row,Molecule,regulation of the Bmal1 promoter
1,B1,specific repression

# Same assay, conditions: transcription factor +/- ligand; control = 1.00
row,Molecule,mBmal1 promoter reporter activity
1,B1,0.05
2,B2,1.21
3,B3,0.72
4,B4,1.00
5,B5,1.22

# Test system: hPPARg1 promoter
# Assay: NHR-promoter luciferase screen, hPPARg1 promoter
# Type: cell-based, human
# Conditions: PPARG1 promoter; hormone receptor with or without its ligand
# Experimental: as §1, §2, §3
row,Molecule,"Luc. act., normalized to lacZ"
1,B1,55.5
2,B2,86.6
3,B3,46.0
4,B4,100.6
5,B5,80.1

# Same assay, conditions: PPARG1 promoter; hormone receptor with or without its ligand; relative to control
row,Molecule,"Normalized Luc. act., normalized to control"
1,B1,0.8
2,B2,1.3
3,B3,0.7
4,B4,1.5
5,B5,1.2

# Same assay, conditions: Table 6d; luciferase activity relative to control (control = 1.00)
row,Molecule,Results of assays of transcription factor (+/- ligand) with hPPARg1
1,B1,0.81
2,B2,1.26
3,B3,0.67
4,B4,1.46
5,B5,1.16

# Test system: mPer1 promoter
# Assay: NHR-promoter luciferase screen, mPer1 promoter
# Type: cell-based, mouse
# Conditions: Per1 promoter reporter; co-transfected HR, with or without its ligand
# Experimental: as §1, §2, §3
row,Molecule,"Luc. act., normalized to lacZ"
1,B1,118.3
2,B2,85.4
3,B3,187.6
4,B4,89.3
5,B5,120.3

# Same assay, conditions: Per1 promoter reporter; co-transfected HR, with or without its ligand; relative to control
row,Molecule,"Normalized Luc. act., normalized to control"
1,B1,0.8
2,B2,0.6
3,B3,1.3
4,B4,0.6
5,B5,0.8

# Same assay, conditions: mPer1 promoter-luciferase, CV-1 cells, NHR +/- ligand, control = 1.00
row,Molecule,"luciferase activity normalized to lacZ activity and to a control, mPer1"
1,B1,0.82
2,B2,0.59
3,B3,1.30
4,B4,0.62
5,B5,0.84
